Here are results for three molecules from patent US20200038462A1, “METHODS AND COMPOSITIONS OF OTC CONSTRUCTS AND VECTORS” (priority 2018, published 2020).

First the molecules themselves.
B1: CO6-1: hOTC construct; CO6 re-optimized by GeneArt, SEQ ID NO:6 (nucleic acid)
DNA: GTCGACGCCGCCACCATGCTGTTCAACCTGCGGATCCTGCTGAACAACGCCGCCTTCAGAAACGGCCACAACTTCATGGTCCGAAACTTCAGATGCGGCCAGCCTCTGCAGAACAAGGTGCAGCTGAAGGGCAGAGATCTGCTGACCCTGAAGAACTTCACCGGCGAAGAGATCAAATACATGCTGTGGCTGAGCGCCGACCTGAAGTTCCGGATTAAGCAGAAGGGCGAGTACCTGCCACTGCTGCAGGGAAAGTCTCTGGGCATGATCTTCGAGAAGCGGAGCACCAGAACCAGACTGAGCACCGAGACAGGCTTTGCCCTGCTCGGAGGACACCCCTGCTTTCTGACAACACAGGATATCCACCTGGGCGTGAACGAGAGCCTGACCGATACAGCCAGAGTGCTGAGCAGCATGGCTGATGCCGTGCTGGCCAGAGTGTACAAGCAGAGCGATCTGGACACCCTGGCCAAAGAGGCCAGCATTCCCATCATCAACGGCCTGAGCGACCTGTATCACCCCATCCAGATCCTGGCCGACTACCTGACACTGCAAGAGCACTACAGCAGCCTGAAGGGACTGACCCTGTCTTGGATCGGCGACGGCAACAACATCCTGCACTCTATTATGATGAGCGCCGCCAAGTTCGGAATGCACCTGCAGGCCGCTACACCCAAGGGCTATGAGCCTGATGCCAGCGTGACAAAGCTGGCCGAGCAGTACGCCAAAGAGAACGGCACAAAGCTGCTGCTGACCAACGATCCCCTGGAAGCTGCCCACGGCGGCAATGTGCTGATCACCGATACCTGGATCTCTATGGGCCAAGAGGAAGAGAAGAAGAAGCGGCTGCAGGCCTTCCAGGGCTACCAAGTGACAATGAAGACCGCCAAGGTGGCCGCCAGCGATTGGACCTTTCTGCACTGCCTGCCTCGGAAGCCTGAAGAGGTGGACGACGAGGTGTTCTACAGCCCTAGAAGCCTGGTGTTCCCCGAGGCCGAGAACAGAAAGTGGACCATCATGGCTGTGATGGTGTCCCTGCTGACCGACTACTCTCCCCAGCTGCAGAAGCCCAAGTTCTGATAAGAATTC
B2: CO9-2: hOTC construct; CO9 re-optimized by IDT, SEQ ID NO:10 (nucleic acid)
DNA: GTCGACGCCGCCACCATGCTCTTCAATCTCCGAATACTCCTGAATAATGCGGCATTCAGAAATGGGCACAATTTTATGGTGCGAAATTTTCGATGTGGGCAGCCCTTGCAAAATAAAGTACAACTTAAAGGCAGAGATCTTCTTACGCTCAAAAACTTTACCGGCGAAGAGATTAAGTATATGTTGTGGCTGTCTGCTGACCTTAAATTCCGAATAAAACAGAAAGGCGAATACCTTCCGCTCCTCCAAGGGAAATCTCTTGGGATGATTTTCGAGAAGAGATCTACGCGCACGCGGCTTTCAACGGAAACTGGATTCGCACTCTTGGGCGGCCACCCATGTTTTCTGACTACTCAAGATATTCACTTGGGAGTAAATGAGTCACTTACTGACACGGCAAGAGTGCTCTCTAGCATGGCTGATGCAGTGCTGGCTAGAGTCTATAAACAATCCGACCTGGATACACTCGCCAAGGAAGCTTCAATACCAATAATCAACGGGTTGTCTGACTTGTACCACCCTATCCAAATCTTGGCCGATTATTTGACACTCCAGGAACACTACTCAAGTCTGAAGGGACTTACGCTTAGCTGGATAGGTGATGGTAACAACATCCTTCATAGCATTATGATGTCAGCCGCCAAATTCGGCATGCATCTGCAAGCAGCGACTCCCAAGGGCTATGAGCCTGATGCCTCAGTCACCAAACTGGCGGAGCAGTACGCTAAAGAGAATGGGACGAAGCTTTTGCTGACGAACGATCCCCTGGAGGCGGCTCACGGGGGAAATGTGCTTATCACGGATACCTGGATAAGTATGGGGCAGGAGGAAGAAAAAAAAAAGCGATTGCAAGCCTTTCAAGGTTACCAGGTTACAATGAAAACTGCGAAAGTCGCCGCATCTGACTGGACTTTTCTGCACTGTCTTCCGAGAAAGCCGGAAGAGGTGGACGACGAAGTGTTCTACTCTCCGCGCTCTCTCGTGTTTCCTGAAGCAGAGAACCGAAAGTGGACCATAATGGCGGTAATGGTCAGCCTCTTGACTGATTATTCCCCTCAGCTGCAGAAGCCAAAGTTTTGATAAGAATTC
B3: CO9-1: hOTC construct; CO9 re-optimized by GeneArt, SEQ ID NO:9 (nucleic acid)
DNA: GTCGACGCCGCCACCATGCTGTTTAATCTGAGAATCCTGCTGAACAATGCTGCTTTCCGCAATGGGCACAACTTTATGGTCCGAAACTTCCGATGTGGACAGCCTCTGCAGAACAAGGTGCAGCTGAAGGGCCGGGACCTGCTGACCCTGAAGAATTTCACAGGCGAGGAGATCAAATACATGCTGTGGCTGAGCGCCGATCTGAAGTTTAGGATCAAGCAGAAGGGCGAGTATCTGCCACTGCTGCAGGGCAAGTCCCTGGGCATGATCTTCGAGAAGCGGAGCACCCGGACAAGACTGAGCACCGAGACAGGATTCGCACTGCTGGGAGGACACCCATGCTTTCTGACAACACAGGACATCCACCTGGGCGTGAACGAGTCTCTGACCGACACAGCACGGGTGCTGAGCTCCATGGCAGATGCCGTGCTGGCCAGAGTGTACAAGCAGAGCGACCTGGATACCCTGGCCAAGGAGGCCTCCATCCCCATCATCAATGGCCTGTCTGACCTGTATCACCCAATCCAGATCCTGGCCGATTACCTGACCCTGCAGGAGCACTATTCTAGCCTGAAGGGCCTGACACTGAGCTGGATCGGCGACGGCAACAATATCCTGCACAGCATCATGATGTCCGCCGCCAAGTTTGGAATGCACCTGCAGGCAGCAACCCCAAAGGGATACGAGCCCGATGCCTCCGTGACAAAGCTGGCCGAGCAGTATGCCAAGGAGAACGGCACCAAGCTGCTGCTGACAAATGACCCACTGGAGGCAGCACACGGAGGAAACGTGCTGATCACCGATACATGGATCTCTATGGGCCAGGAGGAGGAGAAGAAGAAGCGGCTGCAGGCCTTCCAGGGCTACCAGGTGACCATGAAGACAGCCAAGGTGGCCGCCTCTGATTGGACCTTTCTGCACTGTCTGCCCCGGAAGCCTGAGGAGGTGGACGATGAGGTGTTCTATTCCCCTCGGAGCCTGGTGTTCCCAGAGGCAGAGAATCGCAAGTGGACAATCATGGCCGTGATGGTCTCCCTGCTGACTGACTACTCCCCACAGCTGCAGAAGCCCAAGTTTTGATAAGAATTC

This data set has as its system HUH7 hepatocellular carcinoma cell line. Description: OTC protein expression in transfected HUH7 cells, Western blot. It is filed as cell-based, human. As to conditions: FIGS. 14-15. The text has this:
The wt-hOTC was codon-optimized (CO) with different algorithms. The optimization process is aimed at improving translation and stability of the OTC mRNA by changing the nucleotide sequence while keeping the amino acid primary sequence unvaried. The wild-type OTC cDNA sequence and the codon-optimized (CO) LW4 sequence from WO 2015/138357 patent A2 (Wang L., Wilson J. M.) were also synthesized, to be used as comparison control (CO1). The nucleotide sequence of the different CO cDNAs differs with a range of 30-20% from the WT cDNA sequence. The vectors were then packaged into the AAV8 serotype and used to transduce Huh7 cells. Huh7 cells, co-transfected with the OTC constructs and the pGG2-eGFP plasmid (to normalize for transfection efficiency), were used to generate total RNA and proteins. mRNA, protein, and activity levels were analyzed using qRT-PCR and Western blotting.
The human hepatocellular carcinoma cell line HUH7 was used to evaluate the expression levels of AAV8-hOTC-CO constructs. The AAV8-hOTC-CO1 (C01), AAV8-hOTC-CO2 (CO2), AAV8-hOTC-CO3 (CO3), AAV8-hOTC-006 (CO6), AAV8-hOTC-CO7 (CO7), AAV8-hOTC-009 (CO9) construct plasmids, together with a pGFP plasmid as an internal control, were transiently co-transfected in HUH7 cells with Lipofectamine (Lipofectamine 2000, Thermo Fisher Scientific). Twenty-four hours post-transfection, total protein lysates were prepared and analyzed for OTC expression by Western blot analysis.
A general note: A western blot detects proteins with antibodies after separation by electrophoresis.
As for B1, the “OTC protein expression levels compared to hOTC-wt (in words)” value was “significantly reduced”.
Turning to B2, the “OTC protein expression levels compared to hOTC-wt (in words)” value was “significantly reduced”.
In the case of B3, the “OTC protein expression levels compared to hOTC-wt (in words)” value is on record as “significantly reduced”.
